# The nanobody polyreactivity screen of Harvey et al. (2022)
# Experiment: yeast display, Sf9 membrane polyspecificity reagent, FACS + sequencing; frameworks hold sequencing errors
# In short: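 Polyreactivity labels are assigned by the sorting gate from which each nanobody was recovered. The gates were low and high (top ~1%), set on anti-HA fluorescence for expression and streptavidin fluorescence for reagent binding. Before sorting, galactose-induced (36–48 hours) yeast display cells were stained for 1 hour at 4 °C with 10% biotinylated, detergent-solubilized Sf9 membrane reagent.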
row,Sequence,polyreactivity (PSR sort gate)
1,QVQLVESGGGLVQAGGSLRLSCAASGRIFYANDMGWYRQAPWKERELVAAITNTVSTTYADSVKGRFTISRDNAKNTVYLQMNSLKPEDTAVYYCNGDDPYVPKADMGYWGQGTQVTVSS,low polyreactivity
2,QVQLVESGGGLVQAGGSLRLSCAASGRIFYANTMGWYRQAPGKEWELVAAITSGGSTNYADSVKGRFTISRDNAKNTVYGQKNSLKPEDTAVYYCATKQRRGYWGYITAYARYYWGQGTQVTVSS,high polyreactivity
3,QVQLVESGGGLVQAGGSLRLSCAASGRIFYAYAMGWYRKAPGKERELVAAITETGGNTYYADSVKGRFTISRDNAKNTVYLQMNSLKPEDTAVYYCARKGRRTHHYGLYSSSVYYWGQGTQVTVSS,low polyreactivity
4,QVQLVESGGGLVQAGGSLRLSCAASGRIFYAYAMGWYRPAPGNERELVAAITISASSTYYADSVKGRFTISRDNAKNTVYLQMNSLKPEDTAVSYCAAAYRRPWWYSYRYGYWGQGTQVTVSS,high polyreactivity
5,QVQLVESGGGLVQAGGSLRLSCAASGRIFYAYAMGWYRQAPGKERELVARISYSGGNTYYADSVKGRFTISRDNAKNTVYLQMNSQKPEDTAVYYCNTDYRARFGYWGQGTQVTVSS,high polyreactivity
6,QVQLVESGGGLVQAGGSLRLSCAASGRIFYAYAMGWYRQAPGKERELVATITGIGGSTYADSVKGRFTISRDNAKNTVNLQMNSLKPEDTAVYYCNAERGVYWGRYPYKYDYWGQGTQVTVSS,low polyreactivity
7,QVQLVESGGGLVQAGGSLRLSCAASGRIFYAYAMGWYRQAPGKERELVATITYGGGSTYYADSVKGRFTISRDNAKNTVDLQMNSLKPEATAVYYCAADRTGSTLYTIRYYYWGQGTQVTVSS,low polyreactivity
8,QVQLVESGGGLVQAGGSLRLSCAASGRIFYDNAMGWYSQAPGKERELVAAIRIGGSTNYADSVKGRFTISRDNAKNTVYLLMNSLKPEDTAVYYCNRSDNPDSYYPDSVWGDSWGQGTQVTVSS,low polyreactivity
9,QVQLVESGGGLVQAGGSLRLSCAASGRIFYDYDMGWYRQAPGKERELVAAISYGGGTTYYADSVKGRFTISRDNAKNTVYLQMTSLKPEDTAVYYCAAEYASGSYDEYDYWGQGTQVTVSS,low polyreactivity
10,QVQLVESGGGLVQAGGSLRLSCAASGRIFYEYAMGWYRQAPGKEREVVAAISNSGGSTSYADSVKGRFSISRDNATNTDYLQMNSLQPEDTAVSYCAAGSHSGRAYYYWGEGTQVTVSS,high polyreactivity
11,QVQLVESGGGLVQAGGSLRLSCAASGRIFYFNAMGWYRQAPGKERELVAAISGSGGDTYYADSVKGRFTISRDNAKNTVYLQMNSLKPEDTAVYYCAAEVYTWGQGTQVTVSS,low polyreactivity
12,QVQLVESGGGLVQAGGSLRLSCAASGRIFYFNAMGWYRQAPGKERELVADMSSGGRTNYADSVKGRFTISRDNEKNSVYLQMNSLKPEDSAVYYWIAEPYTSSVGYRGYDFDDWGQGTQVTVSS,low polyreactivity
13,QVQLVESGGGLVQAGGSLRLSCAASGRIFYFNTMGWSRQAPGKERELVAAISKNGGSTYYADSVKGRFTISRDTAKNTVYLQMNSLKPEDTAVYYCAKTRRLSPYDYWGQGTQVTVSS,high polyreactivity
14,QVQLVESGGGLVQAGGSLRLSCAASGRIFYFYAMGWYRQAPGKERELVAAINIGGSTNYADSVKGRFTISRDNAKNTVYLQMNSLKPEDTAVYYCNAEAYSRSDYYRYDYWGQGTQVTVSS,low polyreactivity
15,QVQLVESGGGLVQAGGSLRLSCAASGRIFYGNAMGWYRQAPGKERQLVAAITDGGSTNYADSVKGRFTISRDNAKNTVYLQMNSLKPEDTAVYYCAKDYRGSYYKYDYWGQGTQVTVSS,low polyreactivity
16,QVQLVESGGGLVQAGGSLRLSCAASGRIFYGYAMGWYRQAPGKERELVAAITRSGGSTYYADSVKGRFTISRDTAKNTVYLQMNSLKPEDTAVYYCNAQWGYRTSFDYGYWGQGTQVTVSS,low polyreactivity
17,QVQLVESGGGLVQAGGSLRLSCAASGRIFYGYAMGWYRQAPGKERELVAAITSGSRTNYADSVKGRFTISRDNAKNTVYLQMNSLKPEDTAVYYCHSRYGSYLYSLVHNTRYDYWGQGTQVTVSS,low polyreactivity
18,QVQLVESGGGLVQAGGSLRLSCAASGRIFYGYAMGWYRQAPGKERELVAAITVSGGDTYYADSVKGRFTISRDNAKNTVYLQMNSLKPEDTAVYYCAAKADKRLDYWGQGTQVTVSS,low polyreactivity
19,QVQLVESGGGLVQAGGSLRLSCAASGRIFYGYARGWYRQAPGKDRELVAAIRWYGGNTYYADSVKGRFTISRDNAKNTVYLQMNSLKPEDTAVYYCNARTEYASSRYYYWGQGTQVTVSS,high polyreactivity
20,QVQLVESGGGLVQAGGSLRLSCAASGRIFYGYTMGWYRQAPGKERELVASIDYSTGRTYYADSVKGRFTISRDNAKNTVYLQMNSLKPEDTAVYYCNADPNYSLLRYDYWGQGTQVTVSS,high polyreactivity
21,QVQLVESGGGLVQAGGSLRLSCAASGRIFYGYTMGWYRQAPGKERELVASITIRGSRTYYADSVKGRFTISRDNAKNTVYLQMNSLKPEDTAVYYCAADFVPARTVHRYDYWGQGTQVTVSS,low polyreactivity
22,QVQLVESGGGLVQAGGSLRLSCAASGRIFYGYVMGWYRQAPGKERELVAAISWSAGRTYYADSVKGRFTISRDNAKNTVYLQMNSLKPEDTAVYYCAARYFSLYVWSTFEYWGQGTQVTVSS,high polyreactivity

row,Sequence,polyreactivity (PSR sort gate)
1,QVQLVESGGGLVQAGGSLRLSCAASGRIFYHNTMGWYRQAPGKERELVAAITTSGSTYYADSVKGRFTISRDNAKNSVYLQMNSLKPEDTSVYYCAARALRWFNYWGQGTQVTVSS,high polyreactivity
2,QVQLVESGGGLVQAGGSLRLSCAASGRIFYHYAMGGYRPAPGKERELVAAISSSTGRSYYADSVKGRFTFSRDNAKNTVYLQMNSLKPEDSAVYYCATTPGYYGYISPRIRLYDYWGQGTQVTVSS,high polyreactivity
3,QVQLVESGGGLVQAGGSLRLSCAASGRIFYHYAMGWYRQAPGKERELVAAITWSGVSTYYADSVKGRFTISRDNAKNTVYLQMNSLKPDDTAVYYCATSSRYGVRRYSRGSWGQGSQVTVSS,high polyreactivity
4,QVQLVESGGGLVQAGGSLRLSCAASGRIFYHYAMGWYRQAPGKERELVAVIRSTGSTNYADSVKGRFTISRDNAKNTVYFQLKSLIPEDTAVYYCAVRRATFSYWYFNGGYWGQGTQVTVSS,high polyreactivity
5,QVQLVESGGGLVQAGGSLRLSCAASGRIFYINALGWYRQAPGKERELVASITGSGDSTYYADSVKGRFTISRDNAKNTVELQMNSLKPEDTAVYYCAARTYYYYGPRYYYWGQGTQVTVSS,low polyreactivity
6,QVQLVESGGGLVQAGGSLRLSCAASGRIFYIYAMGWYRQAPGKERELVASITSSGTSTYADSVKGRFTISRDNAKNTVYLQMNSLKPEDTAVYYCNARGYPKSWRYSRGYEYWGQGTQVTVSS,low polyreactivity
7,QVQLVESGGGLVQAGGSLRLSCAASGRIFYKYAKGWYRQAPGKERELVAAITTSGGSTYYADSVKGRFTISRDNAKNTVYLQMKSLKPEDTAVYYCARDLNGRFLTTGRGMDYWGQGTQVTVSS,high polyreactivity
8,QVQLVESGGGLVQAGGSLRLSCAASGRIFYKYAMGWYRPAPGKERELVAAISWSGGRTYYADSVKGRFTISRDNAKNTVYLQMNSLKPEDTAVYYCNAVYAGFLRVRYDYWGQGTQVTVSS,high polyreactivity
9,QVQLVESGGGLVQAGGSLRLSCAASGRIFYKYAMGWYRQAPGKERELVAAISWSGGRTYYADSVKGRFTISRDNAKNTVYLQMNSLKPEDTAVYYCAAVRGGASGGYDYWGQGTQVTVSS,high polyreactivity
10,QVQLVESGGGLVQAGGSLRLSCAASGRIFYKYVMGWYRQAPGNERELVATITSGGSTYYADSVKGRFTISRDNAKNTVYLQMNSLKPEDTAVYYCAARKYYSRAYDYWGQGTQVTVSS,high polyreactivity
11,QVQLVESGGGLVQAGGSLRLSCAASGRIFYLNAMGWYRQAPGKERELVAGITNSTTGTYYADSVKGRFTISRDNAKNTVYLQMNCLKPEDTAVYYCITDVAYEEPVETYDYWGQGTQVTVSS,low polyreactivity
12,QVQLVESGGGLVQAGGSLRLSCAASGRIFYNVMGWYRQAPGKERELVAAISSSGGRTYYADSVKGRFTISRDNAKNTVYLQMNSLKPEDTAVYYCAARAWYYGYWGQGTQVTVSS,high polyreactivity
13,QVQLVESGGGLVQAGGSLRLSCAASGRIFYNYAMGWYRQAPGKERELLAAISWSGTSTYYADSVKGRFTISRDNAKNTVYLQMNSLKPEDTAVYYCATDRTYTARGYYLEYHRYDYRGQGTQVTVSS,low polyreactivity
14,QVQLVESGGGLVQAGGSLRLSCAASGRIFYNYAMGWYRQAPGKERELVAAISGSGGSTYYADSVKGRFTISRDNAKKTVYLQMNSLKPEDTAVYYCSTSGPQYYSRNFDYWGQGTQVTVSS,low polyreactivity
15,QVQLVESGGGLVQAGGSLRLSCAASGRIFYNYAMGWYRQAPGKERELVAAISGSGGSTYYADSVKGRFTISRDNAKNTVYLQMNSLKPEDTAVYYCAKDYRWDRKFDYWGQGTQVTVSS,low polyreactivity
16,QVQLVESGGGLVQAGGSLRLSCAASGRIFYNYAMGWYRQAPGKERELVAAISGSGGSTYYADSVKGRFTISRDNAKNTVYLQMNSLKPEDTAVYYCNARDVVYLITPYFLVYVNLDYWGQGTQVTVSS,low polyreactivity
17,QVQLVESGGGLVQAGGSLRLSCAASGRIFYNYAMGWYRQAPGKERELVAAISSSGGSTYYADSVKGRFTISRDNAKNTVYLQMNSLKPEDTAVYYCAVRKQYSGRYYRAYDYWGQGTQVTVSS,high polyreactivity
18,QVQLVESGGGLVQAGGSLRLSCAASGRIFYPNAMGWYRQAPGKERELVAAISKRGGRTYYADSVKGRFTISRDNAKNTVYLQMNSLNPEDTAVYYCATRWASYPRTGRYDYWGQGTQVTVSS,high polyreactivity
19,QVQLVESGGGLVQAGGSLRLSCAASGRIFYPNDLGWYRQAPGKERELVAAITRDGSTNYADSVKGRFTISRDNAKNTVYLQMNSLKPEDTAVYYCAADISDWYIIRRMNYWGQGTQVTVSS,low polyreactivity
20,QVQLVESGGGLVQAGGSLRLSCAASGRIFYPYAMGWYRQAPGKERELVAAIRRSGVDTYYADSVKGRFTISRDNAKNTVYFQMNSLKPEDTAVYYCAADPYWFFPHYDSWGQGTQVTVSS,low polyreactivity
21,QVQLVESGGGLVQAGGSLRLSCAASGRIFYPYAMGWYRQAPGKERELVASITWRGGSTYYADSVKGRFTISRDNAKNTVYLQMNSLKPEDTAVYYCAAVPYSYTYVYLSHYDYWGQGTQVTVSS,low polyreactivity
